Experimental data published in patent US20190153065A1 (published 2019).

Tests used:
[1] = biological target: PD-L1 mutant G120D (mouse PD-L1-mCherry fusion) (mouse, UniProt Q9EP73 19-290); assay: FACS titration; avid
[2] = biological target: PD-L1 mutant D49R (mouse PD-L1-mCherry fusion) (mouse, UniProt Q9EP73 19-290); assay: FACS titration; avid
[3] = biological target: PD-L1 mutant R125A (mouse PD-L1-mCherry fusion) (mouse, UniProt Q9EP73 19-290); assay: FACS titration; avid
[4] = biological target: PD-L1 mutant G119D (mouse PD-L1-mCherry fusion) (mouse, UniProt Q9EP73 19-290); assay: FACS titration; avid
Chain of PD-L1 mutant G119D (mouse PD-L1-mCherry fusion) (Q9EP73 19-290 G119D): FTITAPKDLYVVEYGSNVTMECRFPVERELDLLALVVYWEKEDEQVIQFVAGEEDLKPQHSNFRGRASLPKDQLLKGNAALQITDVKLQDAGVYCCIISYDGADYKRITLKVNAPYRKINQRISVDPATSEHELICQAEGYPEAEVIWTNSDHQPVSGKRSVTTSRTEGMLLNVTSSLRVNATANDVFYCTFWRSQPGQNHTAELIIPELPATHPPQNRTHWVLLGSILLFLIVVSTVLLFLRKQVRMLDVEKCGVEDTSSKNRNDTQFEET

[5] = biological target: PD-L1 mutant K124A (mouse PD-L1-mCherry fusion) (mouse, UniProt Q9EP73 19-290); assay: FACS titration; avid
Chain of PD-L1 mutant K124A (mouse PD-L1-mCherry fusion) (Q9EP73 19-290 K124A): as the sequence (Q9EP73 19-290 G119D) above, with D101G, K106A counted along it

[6] = biological target: T1, wild-type mouse PD-L1 mCherry (full-length mouse PD-L1 with C-terminal mCherry, on HEK 293 cells) (mouse, UniProt Q9EP73 19-290); assay: FACS
T1 sequence (Q9EP73 19-290): as the sequence (Q9EP73 19-290 G119D) above, with D101G counted along it

[7] = biological target: PD-L1 mutant Y56A (mouse PD-L1-mCherry fusion) (mouse, UniProt Q9EP73 19-290); assay: FACS
Chain of PD-L1 mutant Y56A (mouse PD-L1-mCherry fusion) (Q9EP73 19-290 Y56A): as the sequence (Q9EP73 19-290 G119D) above, with Y38A, D101G counted along it

D28R = assay: FACS titration; avid
[8] = biological target: T1, wild-type mouse PD-L1 mCherry …; assay: FACS titration; avid
[9] = biological target: PD-L1 mutant Y123R (mouse PD-L1-mCherry fusion) (mouse, UniProt Q9EP73 19-290); assay: FACS titration; avid
Chain of PD-L1 mutant Y123R (mouse PD-L1-mCherry fusion) (Q9EP73 19-290 Y123R): as the sequence (Q9EP73 19-290 G119D) above, with D101G, Y105R counted along it

[10] = biological target: PD-L1 mutant D122A (mouse PD-L1-mCherry fusion) (mouse, UniProt Q9EP73 19-290); assay: FACS titration; avid
Chain of PD-L1 mutant D122A (mouse PD-L1-mCherry fusion) (Q9EP73 19-290 D122A): as the sequence (Q9EP73 19-290 G119D) above, with D101G, D104A counted along it

Chain of PD-L1 mutant R125A (mouse PD-L1-mCherry fusion) (Q9EP73 19-290 R125A): as the sequence (Q9EP73 19-290 G119D) above, with D101G, R107A counted along it
Chain of PD-L1 mutant G120D (mouse PD-L1-mCherry fusion) (Q9EP73 19-290 G120D): as the sequence (Q9EP73 19-290 G119D) above, with D101G, G102D counted along it
Chain of PD-L1 mutant D49R (mouse PD-L1-mCherry fusion) (Q9EP73 19-290 D49R): as the sequence (Q9EP73 19-290 G119D) above, with D31R, D101G counted along it

B1: wild-type mPD-1 Fc (residues L25-Q167, mIgG2a-10×His) (Fc fusion)
chain (part 1 of 2): LEVPNGPWRSLTFYPAWLTVSEGANATFTCSLSNWSEDLMLNWNRLSPSNQTEKQAAFCNGLSQPVQDARFQIIQLPNRHDFHMNILDTRRNDSGIYLCGAISLHPKAKIEESPGAELVVTERILETSTRYPSPSPKPEGRFQ
chain (part 2 of 2): HHHHHHHHHH
[1]
  EC50: 2.8 nM
[2]
  EC50: 1.8 nM
[3]
  EC50: 38.8 nM
[4]
  EC50: 2 nM
[5]
  EC50: 42.9 nM
[6]
  EC50: 1.8 nM
[7]
  EC50: 1.9 nM

B2: PD-1 (Fc fusion)
chain (part 1 of 2): LEVPNGPWRSLTFYPAWLTVSEGANATFTCSLSNWSEDLMLNWNRLSPSNQTEKQAAFCNGLSQPVQDARFQIIQLPNRHDFHMNILDTRRNDSGIYLCGAISLHPKAKIEESPGAELVVTERILETSTRYPSPSPKPEGRFQ
chain (part 2 of 2): HHHHHHHHHH
D28R
  EC50: 2.6 nM

B3: wild-type mB7-1 Fc (residues D37-K245, mIgG2a-10×His) (Fc fusion)
chain: DVDEQLSKSVKDKVLLPCRYNSPHEDESEDRIYWQKHDKVVLSVIAGKLKVWPEYKNRTLYDNTTYSLIILGLVLSDRGTYSCVVQKKERGTYEVKHLALVKLSIKADFSTPNITESGNPSADTKRITCFASGGFPKPRFSWLENGRELPGINTTISQDPESELYTISSQLDFNTTRNHTIKCLIKYGDAHVSEDFTWEKPPEDPPDSK
modifications: C-terminal mIgG2a Fc-10×His (dimerising carrier), not in the letters
[8]
  EC50: 39.2 nM
[9]
  EC50: 7.7 nM
[3]
  EC50: 20.2 nM
[5]
  EC50: 54.9 nM
[10]
  EC50: 68.2 nM

B4: B7-1 (Fc fusion)
chain: DVDEQLSKSVKDKVLLPCRYNSPHEDESEDRIYWQKHDKVVLSVIAGKLKVWPEYKNRTLYDNTTYSLIILGLVLSDRGTYSCVVQKKERGTYEVKHLALVKLSIKADFSTPNITESGNPSADTKRITCFASGGFPKPRFSWLENGRELPGINTTISQDPESELYTISSQLDFNTTRNHTIKCLIKYGDAHVSEDFTWEKPPEDPPDSK
modifications: C-terminal mIgG2a Fc-10×His (dimerising carrier), not in the letters
D28R
  EC50: 18.8 nM
